For assay [1], the target named is Rac1A P29S/Q61L-mCherry-mito (targeted to mitochondria) (D. discoideum) (UniProt P34144). Briefly: mitochondrial co-recruitment.
The target of assay [2] is GFP-CYRI-mito, WT (Dictyostelium CYRI targeted to mitochondria) (D. discoideum). Briefly: mitochondrial co-recruitment.

This note sets out measurements from paper PMC6863750.

In assay [1], “Dictyostelium CYRI WT, GFP fusion (natural protein)” yielded a Pearson's coefficient of correlation for co-localisation at the mitochondria of 0.77.

With “Rac1A P29S/Q61L-mCherry (from UniProt P34144 1-194) (natural protein)”, the Pearson's coefficient of correlation for co-localisation at the mitochondria in assay [2] came to 0.44.
